In PMC12416549 (2024):

T1: TNFR1 (Homo sapiens, UniProt P19438)
T1 chain: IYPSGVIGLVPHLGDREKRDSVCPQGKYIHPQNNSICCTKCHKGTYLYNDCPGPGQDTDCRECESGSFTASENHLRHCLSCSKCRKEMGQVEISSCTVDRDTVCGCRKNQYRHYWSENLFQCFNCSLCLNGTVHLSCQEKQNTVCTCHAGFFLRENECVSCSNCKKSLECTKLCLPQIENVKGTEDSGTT


Molecular target: T1, TNFR1
Experiment: yeast display SC50

| Binder | apparent Kd (screen) [nM] |
| --- | --- |
| E14K (designed binder) SMEEEVEKAAKEYKKKKKEAIEKHLEKLKAKDKEAAERFLKELEEAAKEYAKDEAKTMSEEEAKRRAKKYKEKVLLSELSEEEQKEIKEAEEKLVRTILKYVEEAAK | 3 |
| E4S (designed binder) SMESEVEKAAKEYEKKKKEAIEKHLEKLKAKDKEAAERFLKELEEAAKEYAKDEAKTMSEEEAKRRAKKYKEKVLLSELSEEEQKEIKEAEEKLVRTILKYVEEAAK | 0.539 |
| K71F (designed binder) SMEEEVEKAAKEYEKKKKEAIEKHLEKLKAKDKEAAERFLKELEEAAKEYAKDEAKTMSEEEAKRRAKKYFEKVLLSELSEEEQKEIKEAEEKLVRTILKYVEEAAK | 2.48 |
| E45G (designed binder) SMEEEVEKAAKEYEKKKKEAIEKHLEKLKAKDKEAAERFLKELEGAAKEYAKDEAKTMSEEEAKRRAKKYKEKVLLSELSEEEQKEIKEAEEKLVRTILKYVEEAAK | 2.05 |
| D32V (designed binder) SMEEEVEKAAKEYEKKKKEAIEKHLEKLKAKVKEAAERFLKELEEAAKEYAKDEAKTMSEEEAKRRAKKYKEKVLLSELSEEEQKEIKEAEEKLVRTILKYVEEAAK | 7.07 |
| E54N (designed binder) SMEEEVEKAAKEYEKKKKEAIEKHLEKLKAKDKEAAERFLKELEEAAKEYAKDNAKTMSEEEAKRRAKKYKEKVLLSELSEEEQKEIKEAEEKLVRTILKYVEEAAK | 12.5 |
| L75N (designed binder) SMEEEVEKAAKEYEKKKKEAIEKHLEKLKAKDKEAAERFLKELEEAAKEYAKDEAKTMSEEEAKRRAKKYKEKVNLSELSEEEQKEIKEAEEKLVRTILKYVEEAAK | 0.869 |
| K16R (designed binder) SMEEEVEKAAKEYEKRKKEAIEKHLEKLKAKDKEAAERFLKELEEAAKEYAKDEAKTMSEEEAKRRAKKYKEKVLLSELSEEEQKEIKEAEEKLVRTILKYVEEAAK | 1.4 |
| K11H (designed binder) SMEEEVEKAAHEYEKKKKEAIEKHLEKLKAKDKEAAERFLKELEEAAKEYAKDEAKTMSEEEAKRRAKKYKEKVLLSELSEEEQKEIKEAEEKLVRTILKYVEEAAK | 0.956 |

Further lines, results first:

| apparent Kd (screen) [nM] | Binder |
| --- | --- |
| 1.86 | E82N (designed binder) SMEEEVEKAAKEYEKKKKEAIEKHLEKLKAKDKEAAERFLKELEEAAKEYAKDEAKTMSEEEAKRRAKKYKEKVLLSELSENEQKEIKEAEEKLVRTILKYVEEAAK |
| 11.4 | E14P (designed binder) SMEEEVEKAAKEYPKKKKEAIEKHLEKLKAKDKEAAERFLKELEEAAKEYAKDEAKTMSEEEAKRRAKKYKEKVLLSELSEEEQKEIKEAEEKLVRTILKYVEEAAK |
| 1.05 | K16T (designed binder) SMEEEVEKAAKEYEKTKKEAIEKHLEKLKAKDKEAAERFLKELEEAAKEYAKDEAKTMSEEEAKRRAKKYKEKVLLSELSEEEQKEIKEAEEKLVRTILKYVEEAAK |
| 4.39 | K52P (designed binder) SMEEEVEKAAKEYEKKKKEAIEKHLEKLKAKDKEAAERFLKELEEAAKEYAPDEAKTMSEEEAKRRAKKYKEKVLLSELSEEEQKEIKEAEEKLVRTILKYVEEAAK |
| 1.86 | T97G (designed binder) SMEEEVEKAAKEYEKKKKEAIEKHLEKLKAKDKEAAERFLKELEEAAKEYAKDEAKTMSEEEAKRRAKKYKEKVLLSELSEEEQKEIKEAEEKLVRGILKYVEEAAK |
